This test has as its target T1, GST-SVIP (Drosophila SVIP, CG32039) (Drosophila, UniProt Q8IQC6 1-82).
T1 chain: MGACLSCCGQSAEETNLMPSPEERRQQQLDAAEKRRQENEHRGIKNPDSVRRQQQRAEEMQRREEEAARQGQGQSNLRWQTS

One may read the Kd as the concentration at which binding is half-saturated.

B1: MBP-VCP^N-D1 (Drosophila VCP, N-terminal and first D1 ATPase domain) (domain or fragment)
chain: MADSKGEDLATAILKRKDRPNRLIVEEAQNDDNSVVSLSQAKMDELQLFRGDTVILKGKRRKETVCIVLSDDTCPDEKIRMNRVVRNNLCVHLSDVVSVQSCPDVKYGKRVRILPIDESTEGVTGNLFEIYLKPYFLEAYRPIHMGDNFIVRAAMRPIEFKVVLTDPEPYCIVAPETVIFCDGDPIKREEEEESLNAVGYDDIGGCRKQLAQIKEMVELPLRHPSLFKAIGVKPPRGILMYGPPGTGKTLIARAVANETGAFFFLINGPEIMSKLAGESESNLRKAFEEAEKNSPAIIFIDEIDAIAPKRDKTHGEVERRIVSQLLTLMDGMKKSSHLIVMAATNRPNSIDPALRRFGRFDREIDIGIPDATGRLEVLRIHTKNMKLHDDVDLEQIAAESHGHVGADLASLCSEAALQQIREKMDLIDLEDDKIDAEVLASLAVTMENFRYAMTKSSPSALRETVVEVPNTTWTDIGGLESVKKELQELVQYPVEHPDKFLKFGMQPSRGVLFYGPPGCGKTLLAKAIANECQANFISVKGPELLTMWFGESEANVRDIFDKARSAAPCVLFFDELDSIAKARGGNVGDAGGAADRVINQILTEMDGMGAKKNVFIIGATNRPDIIDPAILRPGRLDQLIYIPLPDDKSREAILKANLRKSPLAKEVDLTYIAKVTQGFSGADLTEICQRACKLAIRQAIEAEIRREKERAENQNSAMDMDEDDPVPEITSAHFEEAMKFARRSVSDNDIRKYEMFAQTLQQSRGFGQNFRFPGQTGNTSGSGNNLPVNSPGDNGDDDLYS
Molecule B1 yielded a dissociation constant Kd of 700 nM. That is a sub-micromolar value.

Values taken from publication PMC7820495 (2021).
